The values below come from patent US20160368988A1 (MERUS N V, published 2016).

Test [1] deals with T1, human CD3, membrane-expressed (CD3/TCR complex on HPB-ALL cells or purified human T cells) (human, UniProt P07766 23-207; P04234 22-171; P09693 23-182).
T1 construct: whole, on cells; On cells CD3 stands in the complex with the TCR and the zeta chain; also called cell surface expressed CD3/TCR complexes
Put plainly: flow cytometry on HPB-ALL cells.

In test [2] the target is T1, human CD3, membrane-expressed (CD3/TCR …). As to the kind of experiment: flow cytometry on CD3+ HPB-ALL cells [panel HPB-ALL].
The target in test [3] is T2, recombinant purified human CLEC12A (Sino Biological Inc, cat. Nr. 11896-H07H) (human, UniProt Q5QGZ9 65-265).
T2 construct: Bought protein; also called CLEC12A protein
T2 sequence (looked up): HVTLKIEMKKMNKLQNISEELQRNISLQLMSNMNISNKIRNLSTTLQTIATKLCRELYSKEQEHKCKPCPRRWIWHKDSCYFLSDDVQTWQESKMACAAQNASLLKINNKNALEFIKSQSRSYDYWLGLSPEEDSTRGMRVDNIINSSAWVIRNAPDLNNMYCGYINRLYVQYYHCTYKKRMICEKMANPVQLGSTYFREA
As to the kind of experiment: SPR (BIAcore T100), bsAb captured by anti-human IgG on a CM5 chip, antigen in solution; average of three measurements.

The target in test [4] is T2, recombinant purified human CLEC12A …. Put plainly: SPR (BIAcore T100), ratio of the two KD values.
For test [5], the target named is T1, human CD3, membrane-expressed (CD3/TCR …). Put plainly: flow cytometry on HPB-ALL cells [upper panel].
Test [6] has the same target. Put plainly: flow cytometry on HPB-ALL cells [upper panel]. This is another data set of the same source.
Test [7] has the same target. As to the kind of experiment: flow cytometry on HPB-ALL cells [lower panel].
For test [8] the target is unchanged. As to the kind of experiment: flow cytometry on HPB-ALL cells. The source holds these as a separate data set.
Test [9] shares this target. Put plainly: flow cytometry on HPB-ALL cells [lower panel]. The source holds these as a separate data set.

T1 sequence (P07766 23-207, chain 1 of 3): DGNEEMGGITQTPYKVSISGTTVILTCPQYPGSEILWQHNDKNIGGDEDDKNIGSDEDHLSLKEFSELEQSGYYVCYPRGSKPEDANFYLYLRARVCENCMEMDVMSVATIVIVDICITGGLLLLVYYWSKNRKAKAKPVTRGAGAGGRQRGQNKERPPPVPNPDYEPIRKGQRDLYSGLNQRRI
T1 sequence (P04234 22-171, chain 2 of 3): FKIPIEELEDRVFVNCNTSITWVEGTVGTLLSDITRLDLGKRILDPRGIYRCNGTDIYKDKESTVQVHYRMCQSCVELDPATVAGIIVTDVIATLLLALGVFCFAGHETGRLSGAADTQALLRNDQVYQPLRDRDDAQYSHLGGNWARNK
T1 sequence (P09693 23-182, chain 3 of 3): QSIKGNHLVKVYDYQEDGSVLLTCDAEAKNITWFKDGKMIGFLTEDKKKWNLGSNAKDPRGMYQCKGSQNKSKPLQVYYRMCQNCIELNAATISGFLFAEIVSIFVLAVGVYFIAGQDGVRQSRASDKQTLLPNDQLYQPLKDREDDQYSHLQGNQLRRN

B1: PG3873 (antibody, V domains shown)
VH: QVQLVQSGGGVVQPGRSLRLSCVASGFTFSSYGMHWVRQAPGKGLEWVAAIWYQGRKQDYADSVKGRFTISRDNSKNTLYLQMNSLRAEDTAVYYCTRGTGYNWFDPWGQGTLVTVSS
VL: not shown
notes: Full length monoclonal IgG; also called MF3873 as IgG
Consider B1, for which, in test [1], the binding result is given as “no binding (tested: 10 µg/ml)”.

B2: 5196×4327 DM-Fc bsAb (bispecific antibody, V domains shown)
VH 1: QVQLVQSGGGVVQPGRSLRLSCVASGFTFSSYGMHWVRQAPGKGLEWVAAIWYNARKQDYADSVKGRFTISRDNSKNTLYLQMNSLRAEDTAVYYCTRGTGYNWFDPWGQGTLVTVSS
VH 2: QVQLVQSGAEVKKPGASVKVSCKASGYTFTSYYMHWVRQAPGQGLEWMGIINPSGGSTSYAQKFQGRVTMTRDTSTSTVYMELSSLRSEDTAVYYCAKGTTGDWFDYWGQGTLVTVSS
VL: not shown
notes: Full length bispecific IgG with the lower hinge/CH2 changes at positions 235-236 (DM-Fc; L235G, G236R) and CH3 heterodimerisation (KK/DE variants) as in WO2014/051433
On to B2, for which the binding result in test [2] is “binds”. For the same molecule, in test [3], the Kd was found to be 3 nM. Besides, the “fold higher affinity of the CLEC12A arm than of the human CD3 binding arm” value in test [4] is approximately 60 fold.

B3: PG5648 (antibody, V domains shown)
VH: QVQLVQSGGGVVQPGRSLRLSCVASGFTFSSYGMHWVRQAPGKGLEWVAAIWYNARKQEYLDSVKGRFTISRDNSKNTLYLQMNSLRAEDTAVYYCTRGTGYNWFDPWGQGTLVTVSS
VL: not shown
notes: Monospecific IgG format; also called MF5648 in monospecific IgG format
With B3, in test [5], the binding result is recorded as “binds”.

B4: PG5630 (antibody, V domains shown)
VH: QVQLVQSGGGVVQPGRSLRLSCVASGFTFSSYGMHWVRQAPGKGLEWVAAIWYNARKQDYADSVKGRFTISRDNSKNTLYLQMNSLRAEDTAVYYCTRGTGYNWYDPWGQGTLVTVSS
VL: not shown
notes: Monospecific IgG format; also called MF5630 in monospecific IgG format
As for B4, the binding result in test [5] is reported as “binds”.

B5: PG5354 (antibody, V domains shown)
VH: QVQLVQSGGGVVQPGRSLRLSCAASGFTFSGYGMHWVRQAPGKGLEWVAQIYYDGSRTYYADSVKGRFTISRDNSKNTLYLQMNSLRAEDTAVYYCTRGTGYNWFDPWGQGTLVTVSS
VL: not shown
notes: Monospecific IgG format; also called MF5354 in monospecific IgG format
With B5, the binding result in [6] is “binds”.

B6: PG5694 (antibody, V domains shown)
VH: QVQLVQSGGGVVQPGRSLRLSCVASGFTFSSYGMHWVRQAPGKGLEWVAAIWYNARKQEYSDSVKGRFTISRDNSKNTLYLQMNSLRAEDTAVYYCTRGTGYNWFDPWGQGTLVTVSS
VL: not shown
notes: Monospecific IgG format; also called MF5694 in monospecific IgG format
Consider B6, for which, in [5], the binding result is recorded as “binds”.

B7: PG5626 (antibody, V domains shown)
VH: QVQLVQSGGGVVQPGRSLRLSCVASGFTFSSYGMHWVRQAPGKGLEWVAAIWYNARKQEYRDSVKGRFTISRDNSKNTLYLQMNSLRAEDTAVYYCTRGTGYNWFDPWGQGTLVTVSS
VL: not shown
notes: Monospecific IgG format; also called MF5626 in monospecific IgG format
In the case of B7, the binding result in test [7] was “binds”.

B8: PG5603 (antibody, V domains shown)
VH: QVQLVQSGGGVVQPGRSLRLSCVASGFTFSSYGMHWVRQAPGKGLEWVAAIWYNARKQEYIDSVKGRFTISRDNSKNTLYLQMNSLRAEDTAVYYCTRGTGYNWFDPWGQGTLVTVSS
VL: not shown
notes: Monospecific IgG format; also called MF5603 in monospecific IgG format
On to B8, for which the binding result in test [5] is listed as “binds”.

B9: PG5196 (antibody, V domains shown)
VH: QVQLVQSGGGVVQPGRSLRLSCVASGFTFSSYGMHWVRQAPGKGLEWVAAIWYNARKQDYADSVKGRFTISRDNSKNTLYLQMNSLRAEDTAVYYCTRGTGYNWFDPWGQGTLVTVSS
VL: not shown
notes: Full length monoclonal IgG; also called PG5196 mAb; MF5196 as IgG
Turning to B9, the binding result in [8] is recorded as “binds”.

B10: PG5356 (antibody, V domains shown)
VH: QVQLVESGGGVVQPGRSLRLSCAASGFTFSKYGMHWVRQAPGKGLEWVAQIWHDGRKTYYADSVKGRFTISRDNSKNTLYLQMNSLRAEDTAVYYCTRGTGYNWFDPWGQGTLVTVSS
VL: not shown
notes: Monospecific IgG format; also called MF5356 in monospecific IgG format
Regarding B10, the binding result in [9] is given as “binds”.

B11: PG5351 (antibody, V domains shown)
VH: QVQLVQSGGGVVQPGRSLRLSCAASGFTFSSYGMHWVRQAPGKGLEWVAMIWYDGKNTYYADSVKGRFTISRDNSKNTLYLQMNSLRAEDTAVYYCTRGTGYNWFDPWGQGTLVTVSS
VL: not shown
notes: Monospecific IgG format; also called MF5351 in monospecific IgG format
Take B11: the binding result in test [9] is given as “binds”.

B12: PG5616 (antibody, V domains shown)
VH: QVQLVQSGGGVVQPGRSLRLSCVASGFTFSSYGMHWVRQAPGKGLEWVAAIWYNARKQEYNDSVKGRFTISRDNSKNTLYLQMNSLRAEDTAVYYCTRGTGYNWFDPWGQGTLVTVSS
VL: not shown
notes: Monospecific IgG format; also called MF5616 in monospecific IgG format
With B12, in test [7], the binding result was “binds”.

B13: PG3905 (antibody, V domains shown)
VH: QVQLVQSGGGVVQPGRSLRLSCVASGFTFSSYGMHWVRQAPGKGLEWVAAIWYGGRKQDYADSVKGRFTISRDNSKNTLYLQMNSLRAEDTAVYYCTRGTGYNWFDPWGQGTLVTVSS
VL: not shown
notes: Full length monoclonal IgG; also called MF3905 as IgG
As to B13, the binding result in [1] is given as “no binding (tested: 10 µg/ml)”.
